Reference: PMC10666288, “Unveiling the Catalytic Mechanism of a Processive Metalloaminopeptidase” (Biochemistry, 2023)

Substrate: Cc1cc(=O)oc2cc(NC(=O)[C@H](N)CC(C)C)ccc12
Assay: Steady-state activity assay with Leu-AMC (fluorescence)
Format: biochemical, Pseudomonas aeruginosa
Conditions: other: Leu-AMC varied, 3 mM MnCl2, pH 8.0, 25.0 °C
Procedure: A BMG Labtech POLARstar Omega plate reader was used for activity assays and kinetic studies involving amino acids conjugated to para-nitroaniline (pNA) (Sigma) or peptides as substrates. Assays were carried out at 25 °C in clear half-area 96-well plates (Greiner Bio-One). The pNA product formed upon PaPepA-mediated bond cleavage strongly absorbs at 405 nm; therefore, initial rates were measured by monitoring the increase in absorbance at 405 nm over time. For kinetic assays investigating Leu-AMC as a substrate, a SpectraMax M2E was used. Reactions were carried out using black half-area 96-well plates with clear bottoms (Greiner Bio-One). Product formation was assessed by monitoring changes in fluorescence, with the excitation wavelength set at 341 nm and emission at 441 nm. The cutoff was 420 nm. PMT gain was set to medium, with six flashes per read. PaPepA was added at a final concentration of 100 nM to start reactions. Calibration curves of pNA concentration vs absorbance and AMC vs fluorescence were constructed, and initial rate values were divided by the slope of these calibration curves to reveal the rate of product formation over time (Table S2).
For all assays excluding pH dependence curves, buffer conditions were as follows: 100 mM HEPES, 50 mM KCl, and pH 8.0. For assays carried out under pseudo-first-order conditions, one reaction component was fixed and in excess, while the other was varied. If [metal] was varied, [Leu-pNA] was fixed at 2 mM or [Leu-AMC] was fixed at 170 μM. For assays involving variation of aa-pNA or aa-AMC, MnCl2 was added to a final concentration of 3 mM. PaPepA was added at a final concentration of 100 nM in studies containing MnCl2, and to a final concentration of 1 μM in studies containing MgCl2 as the metal cofactor. Table 1 summarizes steady-state parameters described in Scheme 1 and obtained with different substrates.

B1: PaPepA (Pseudomonas aeruginosa UCBPP-PA14) (protein)
chain: MEFLVKSVRPETLKTATLVLAVGEGRKLGASAKAVDDATGGAISAVLKRGDLAGKVGQTLLLQSLPNLKAERVLLVGAGKERELGDRQYRKLASAVLSTLKGLAGADAALALGDLAVKGRGAHAKARLLVETLADGLYVFDRYKSQKAEPLKLKKLTLLADKADSAAVEQGSKEAQAIANGMALTRDLGNLPPNVCHPTFLGEQAKGLAKEFKSLKVEVLDEKKLRELGMGSFLAVAQGSDQPPRLIILQYNGAKKDQAPHVLVGKGITFDTGGISLKPGLGMDEMKFDMCGAASVFGTFRAVLELQLPINLVGLLACAENMPSGGATRPGDIVTTMSGQTVEILNTDAEGRLVLCDALTYAERFKPQSVIDIATLTGACIVALGSNTSGLMGNNEALVRQLLKAGEFADDRAWQLPLFDEYQEQLDSPFADIANIGGPKAGTITAGCFLSRFAKKYHWAHLDIAGTAWISGGKDKGATGRPVPLLTQYLLERAK
notes: GG stays after cleavage) (N); made in house; host or cells: E. coli BL21(DE3)
Km: 16 ± 1 µM
kcat: 0.56 ± 0.01 s⁻¹
kcat/Km: 35400 ± 3100 M⁻¹ s⁻¹
